From patent publication US20250074980A1 (BRIGHAM AND WOMEN S HOSPITAL, published 2025) come the findings set out here.

Substitutions are numbered along the chain they refer to. In names and notes the source's numbering stands.

First the molecules themselves.
T1: His-tagged CEACAM1 (human, UniProt P13688 35-428)
T1 construct: 45 kDa SPR analyte; also called CEACAM1-HIS; CEACAM1 analyte
T1 sequence: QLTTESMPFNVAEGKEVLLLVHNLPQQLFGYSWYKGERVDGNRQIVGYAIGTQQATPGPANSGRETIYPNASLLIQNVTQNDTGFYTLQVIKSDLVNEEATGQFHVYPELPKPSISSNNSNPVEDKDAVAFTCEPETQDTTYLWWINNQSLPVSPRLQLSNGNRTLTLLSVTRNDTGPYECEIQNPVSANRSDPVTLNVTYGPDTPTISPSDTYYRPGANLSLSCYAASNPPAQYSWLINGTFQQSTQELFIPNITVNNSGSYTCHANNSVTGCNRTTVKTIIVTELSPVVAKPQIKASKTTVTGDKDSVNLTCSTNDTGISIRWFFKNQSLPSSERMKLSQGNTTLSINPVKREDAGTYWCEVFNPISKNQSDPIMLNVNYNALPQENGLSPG

B1: CP08A03/Vκ8 S29A (antibody, IgG4, V domains shown)
VH: EVQLLESGGGLVQPGGSLRLSCAASGFIFNNHAISWVRQAPGKGLEWVATISSGGTYTYYPDSVKGRFTISRDNSKNTLYLQMNSLKAEDTAMYYCARHDFDYDAAWFAYWGQGTLVTVSS
VL: EIVLTQSPATLSLSPGERATLSCRANSAVSYMYWYQQKPGQAPRPWIYLTSNRATGVPARFSGSGSGTDYTLTISSLEPEDFAVYYCQQWSSNPPTFGQGTKLEIK
notes: IgG4 (S241P), kappa
B2: CP08B04/Vκ8 S29A (antibody, IgG4, V domains shown)
VH: B1 VH with N30S, N31S, A33G, I34M, D104F, A105P, Y110L
VL: B1 VL
notes: IgG4 (S241P), kappa
B3: CP08A08/Vκ8 S29A (antibody, IgG4, V domains shown)
VH: B1 VH with N30T, A33G, I34M
VL: B1 VL
notes: IgG4 (S241P), kappa
B4: VH1/CP08G01 (antibody, IgG4, V domains shown)
VH: B1 VH with N30S, N31S, A33G, I34M
VL: B1 VL with W90N, S91T, S92N, N93L, P95F
notes: IgG4 (S241P), kappa
B5: CP09E03/Vκ8 S29A (antibody, IgG4, V domains shown)
VH: B1 VH with I28T, N30S, N31A
VL: B1 VL
notes: IgG4 (S241P), kappa
B6: CP08B01/Vκ8 S29A (antibody, IgG4, V domains shown)
VH: B1 VH with I28T, N30S, N31A, I34M
VL: B1 VL
notes: IgG4 (S241P), kappa
B7: CP08B06/Vκ8 S29A (antibody, IgG4, V domains shown)
VH: B1 VH with I28S, N31S
VL: B1 VL
notes: IgG4 (S241P), kappa
B8: CP08A06/Vκ8 S29A (antibody, IgG4, V domains shown)
VH: B1 VH with F27Y, I28S, N30S, N31S, A33G, I34M
VL: B1 VL
notes: IgG4 (S241P), kappa
B9: CP08D11/Vκ8 S29A (antibody, IgG4, V domains shown)
VH: B1 VH with F27Y, I28S, N30S, N31A, A33G, I34M
VL: B1 VL
notes: IgG4 (S241P), kappa
B10: CP09B02/Vκ8 S29A (antibody, IgG4, V domains shown)
VH: B1 VH with I28T, N30T, N31S
VL: B1 VL
notes: IgG4 (S241P), kappa
B11: CP09D03/Vκ8 S29A (antibody, IgG4, V domains shown)
VH: B1 VH with I28T, N30S, N31S
VL: B1 VL
notes: IgG4 (S241P), kappa
B12: CP08G10/Vκ8 S29A (antibody, IgG4, V domains shown)
VH: B1 VH with N30S, N31S, A33G, I34M, D104F, A105P, Y110F
VL: B1 VL
notes: IgG4 (S241P), kappa
B13: CP08B11/Vκ8 S29A (antibody, IgG4, V domains shown)
VH: B1 VH with I28T, N30T, A33G, I34M
VL: B1 VL
notes: IgG4 (S241P), kappa
B14: CP08F07/Vκ8 S29A (antibody, IgG4, V domains shown)
VH: B1 VH with I28T, N30T, N31D
VL: B1 VL
notes: IgG4 (S241P), kappa
B15: VH1/CP09F05 (antibody, IgG4, V domains shown)
VH: B1 VH with N30S, N31S, A33G, I34M
VL: B1 VL with W90N, S91T, S92A, N93L, P95F
notes: IgG4 (S241P), kappa
B16: CP09G03/Vκ8 S29A (antibody, IgG4, V domains shown)
VH: B1 VH with I28T, N31A, I34M
VL: B1 VL
notes: IgG4 (S241P), kappa
B17: CP08D01/Vκ8 S29A (antibody, IgG4, V domains shown)
VH: B1 VH with I28T, N31A, A33G, I34M
VL: B1 VL
notes: IgG4 (S241P), kappa
B18: CP09F03/Vκ8 S29A (antibody, IgG4, V domains shown)
VH: B1 VH with I28T, A33G, I34M
VL: B1 VL
notes: IgG4 (S241P), kappa
B19: CP08H01/Vκ8 S29A (antibody, IgG4, V domains shown)
VH: B1 VH with N30S, N31S, A33G, I34M, R98K, D100P, F101P, D104F
VL: B1 VL
notes: IgG4 (S241P), kappa
B20: VH1/CP08G02 (antibody, IgG4, V domains shown)
VH: B1 VH with N30S, N31S, A33G, I34M
VL: B1 VL with S91T, S92N
notes: IgG4 (S241P), kappa
B21: CP08B03/Vκ8 S29A (antibody, IgG4, V domains shown)
VH: B1 VH with I28T, N30T, N31A
VL: B1 VL
notes: IgG4 (S241P), kappa
B22: CP09A04/Vκ8 S29A (antibody, IgG4, V domains shown)
VH: B1 VH with I28S, N31A, I34M
VL: B1 VL
notes: IgG4 (S241P), kappa
B23: CP08C04/Vκ8 S29A (antibody, IgG4, V domains shown)
VH: B1 VH with I28T, N30S, N31S, A33G, I34M
VL: B1 VL
notes: IgG4 (S241P), kappa
B24: CP08C01/Vκ8 S29A (antibody, IgG4, V domains shown)
VH: B1 VH with F27Y, I28S, N30S, A33G, I34M
VL: B1 VL
notes: IgG4 (S241P), kappa

The target in the experiment is T1, His-tagged CEACAM1. Description: SPR single-cycle, supernatant IgG captured. How it is done:
In order to assess the binding of the humanized, affinity matured reformatted lead IgGs, single-cycle kinetics analysis was performed on crude supernatants using a Biacore T200 running Biacore T200 Control Software V2.0.1 and Biacore T200 Evaluation Software V3.0. Antibodies were diluted in HBS-P+ to a final concentration of 0.5 μg/ml. At the start of each cycle, antibodies were loaded onto Fc2, Fc3 and Fc4 of the Protein A chip. IgGs were captured at a flow rate of 10 μl/min to give an immobilisation level (RL) of ˜100 RU (a level calculated to obtain a Rₘₐₓ of ˜50-150 RU once the analyte is bound). The surface was then allowed to stabilize. Single-cycle kinetics data was obtained with CEACAM1 as the analyte at a flow rate of 80 μl/min to minimize any potential mass transfer effects. Multiple repeats with the parent (VH1/Vκ8 S29A) antibody were performed to check the stability of the surface and analyte over the kinetic cycles. The signal from the reference channel Fc1 (no antibody) was subtracted from that of Fc2, Fc3 and Fc4 to correct for differences in non-specific binding to the reference surface. A three point, two-fold dilution range from 70 nM to 280 nM CEACAM1 without regeneration between each concentration was used. The signal from each antibody blank run (no CEACAM1) was subtracted to correct for differences in surface stability. The association phase for the three injections of increasing concentrations of CEACAM1 was monitored for 80 seconds each time and a single dissociation phase was measured for 150 seconds following the last injection of CEACAM1. Regeneration of the Protein A surface was conducted using two injections of 10 mM glycine-HCL pH 1.5 followed by a stabilization period of 250 seconds.
Broadly, the Kd is a measure of binding affinity in units of concentration. By koff is commonly meant the rate constant with which the complex falls apart. Read a low koff as slow dissociation. What is called kon is the rate constant with which the complex forms. Turning to B1, the Kd came out at 430 nM, the off-rate constant (koff) was found to be 0.039 s⁻¹, the kon amounted to 93000 M⁻¹ s⁻¹ and the “relative KD to parent” value was determined as 1.3.

Take B2: the dissociation constant Kd stood at 410 nM, the koff worked out at 0.049 s⁻¹, the on-rate constant (kon) turned out to be 120000 M⁻¹ s⁻¹ and the “relative KD to parent” value is 1.4.

For the molecule B3, the Kd worked out at 1300 nM, the off-rate constant (koff) came out at 0.073 s⁻¹, the kon is 57000 M⁻¹ s⁻¹ and the “relative KD to parent” value came out at 0.4.

Consider B4, for which the Kd was found to be 400 nM, the koff came to 0.047 s⁻¹, the kon is 120000 M⁻¹ s⁻¹ and the “relative KD to parent” value is 1.5.

Take B5: binding was characterised by a dissociation constant (Kd) of 400 nM, the koff is 0.037 s⁻¹, the on-rate (kon) amounted to 110000 M⁻¹ s⁻¹ and the “relative KD to parent” value was found to be 1.6.

B6: the dissociation constant (Kd) stood at 610 nM, the koff came out at 0.044 s⁻¹, the kon is 72000 M⁻¹ s⁻¹ and the “relative KD to parent” value was determined as 0.9.

Turning to B7, binding was put at a Kd of 420 nM, the koff was found to be 0.044 s⁻¹, the association rate constant (kon) was found to be 110000 M⁻¹ s⁻¹ and the “relative KD to parent” value turned out to be 1.3.

As to B8, binding was characterised by a dissociation constant (Kd) of 440 nM, the off-rate (koff) is 0.075 s⁻¹, the association rate constant (kon) was found to be 170000 M⁻¹ s⁻¹ and the “relative KD to parent” value was determined as 1.3.

On to B9, for which binding was put at a Kd of 2000 nM, the off-rate constant (koff) came out at 0.17 s⁻¹, the kon came out at 86000 M⁻¹ s⁻¹ and the “relative KD to parent” value came to 0.3.

As for B10, the Kd was 340 nM, the koff came to 0.04 s⁻¹, the kon is 120000 M⁻¹ s⁻¹ and the “relative KD to parent” value came to 1.6.

As to B11, binding was put at a Kd of 310 nM, the koff was 0.033 s⁻¹, the on-rate (kon) was 110000 M⁻¹ s⁻¹ and the “relative KD to parent” value was determined as 1.8.

For B12, the dissociation constant Kd came out at 630 nM, the koff came out at 0.055 s⁻¹, the kon stood at 87000 M⁻¹ s⁻¹ and the “relative KD to parent” value was 0.9.

For the molecule B13, the dissociation constant Kd amounted to 610 nM, the dissociation rate constant (koff) was determined as 0.059 s⁻¹, the kon was found to be 96000 M⁻¹ s⁻¹ and the “relative KD to parent” value amounted to 0.9.

As for B14, the Kd was 470 nM, the dissociation rate constant (koff) was 0.081 s⁻¹, the on-rate (kon) amounted to 170000 M⁻¹ s⁻¹ and the “relative KD to parent” value amounted to 1.2.

For B15, the equilibrium dissociation constant (Kd) is 1600 nM, the koff worked out at 0.055 s⁻¹, the kon was found to be 35000 M⁻¹ s⁻¹ and the “relative KD to parent” value worked out at 0.4.

Regarding B16, the Kd came out at 350 nM, the koff turned out to be 0.038 s⁻¹, the on-rate (kon) was determined as 110000 M⁻¹ s⁻¹ and the “relative KD to parent” value is 1.5.

Consider B17, for which the dissociation constant (Kd) is 300 nM, the dissociation rate constant (koff) was determined as 0.043 s⁻¹, the kon turned out to be 140000 M⁻¹ s⁻¹ and the “relative KD to parent” value was found to be 1.9.

In the case of B18, the Kd was 1000 nM, the koff stood at 0.076 s⁻¹, the kon came out at 74000 M⁻¹ s⁻¹ and the “relative KD to parent” value was 0.5.

For the molecule B19, the Kd was found to be 420 nM, the koff was determined as 0.087 s⁻¹, the association rate constant (kon) is 210000 M⁻¹ s⁻¹ and the “relative KD to parent” value amounted to 1.3.

On to B20, for which the Kd worked out at 2300 nM, the koff was 0.052 s⁻¹, the on-rate constant (kon) is 23000 M⁻¹ s⁻¹ and the “relative KD to parent” value is 0.3.

As to B21, the Kd was determined as 360 nM, the koff worked out at 0.069 s⁻¹, the kon is 200000 M⁻¹ s⁻¹ and the “relative KD to parent” value amounted to 1.6.

Take B22: the Kd turned out to be 400 nM, the koff was determined as 0.036 s⁻¹, the kon came to 90000 M⁻¹ s⁻¹ and the “relative KD to parent” value was 1.4.

Take B23: the Kd was 1200 nM, the dissociation rate constant (koff) was 0.26 s⁻¹, the kon worked out at 220000 M⁻¹ s⁻¹ and the “relative KD to parent” value was 0.5.

B24: the dissociation constant (Kd) came out at 1200 nM, the dissociation rate constant (koff) was 0.1 s⁻¹, the kon is 82000 M⁻¹ s⁻¹ and the “relative KD to parent” value worked out at 0.5.
